Consider one substance from patent US20050095678A1.

The target in the experiment is rat α1B+β1b calcium channel (N-type calcium channel α1B subunit coexpressed with β1b subunit) (rat) (UniProt Q02294). Description: cell-based or functional assay.
rat α1B+β1b calcium channel (N-type calcium channel α1B subunit coexpressed with β1b subunit) (rat), sequence (Q02294 whole entry, chain 1 of 2): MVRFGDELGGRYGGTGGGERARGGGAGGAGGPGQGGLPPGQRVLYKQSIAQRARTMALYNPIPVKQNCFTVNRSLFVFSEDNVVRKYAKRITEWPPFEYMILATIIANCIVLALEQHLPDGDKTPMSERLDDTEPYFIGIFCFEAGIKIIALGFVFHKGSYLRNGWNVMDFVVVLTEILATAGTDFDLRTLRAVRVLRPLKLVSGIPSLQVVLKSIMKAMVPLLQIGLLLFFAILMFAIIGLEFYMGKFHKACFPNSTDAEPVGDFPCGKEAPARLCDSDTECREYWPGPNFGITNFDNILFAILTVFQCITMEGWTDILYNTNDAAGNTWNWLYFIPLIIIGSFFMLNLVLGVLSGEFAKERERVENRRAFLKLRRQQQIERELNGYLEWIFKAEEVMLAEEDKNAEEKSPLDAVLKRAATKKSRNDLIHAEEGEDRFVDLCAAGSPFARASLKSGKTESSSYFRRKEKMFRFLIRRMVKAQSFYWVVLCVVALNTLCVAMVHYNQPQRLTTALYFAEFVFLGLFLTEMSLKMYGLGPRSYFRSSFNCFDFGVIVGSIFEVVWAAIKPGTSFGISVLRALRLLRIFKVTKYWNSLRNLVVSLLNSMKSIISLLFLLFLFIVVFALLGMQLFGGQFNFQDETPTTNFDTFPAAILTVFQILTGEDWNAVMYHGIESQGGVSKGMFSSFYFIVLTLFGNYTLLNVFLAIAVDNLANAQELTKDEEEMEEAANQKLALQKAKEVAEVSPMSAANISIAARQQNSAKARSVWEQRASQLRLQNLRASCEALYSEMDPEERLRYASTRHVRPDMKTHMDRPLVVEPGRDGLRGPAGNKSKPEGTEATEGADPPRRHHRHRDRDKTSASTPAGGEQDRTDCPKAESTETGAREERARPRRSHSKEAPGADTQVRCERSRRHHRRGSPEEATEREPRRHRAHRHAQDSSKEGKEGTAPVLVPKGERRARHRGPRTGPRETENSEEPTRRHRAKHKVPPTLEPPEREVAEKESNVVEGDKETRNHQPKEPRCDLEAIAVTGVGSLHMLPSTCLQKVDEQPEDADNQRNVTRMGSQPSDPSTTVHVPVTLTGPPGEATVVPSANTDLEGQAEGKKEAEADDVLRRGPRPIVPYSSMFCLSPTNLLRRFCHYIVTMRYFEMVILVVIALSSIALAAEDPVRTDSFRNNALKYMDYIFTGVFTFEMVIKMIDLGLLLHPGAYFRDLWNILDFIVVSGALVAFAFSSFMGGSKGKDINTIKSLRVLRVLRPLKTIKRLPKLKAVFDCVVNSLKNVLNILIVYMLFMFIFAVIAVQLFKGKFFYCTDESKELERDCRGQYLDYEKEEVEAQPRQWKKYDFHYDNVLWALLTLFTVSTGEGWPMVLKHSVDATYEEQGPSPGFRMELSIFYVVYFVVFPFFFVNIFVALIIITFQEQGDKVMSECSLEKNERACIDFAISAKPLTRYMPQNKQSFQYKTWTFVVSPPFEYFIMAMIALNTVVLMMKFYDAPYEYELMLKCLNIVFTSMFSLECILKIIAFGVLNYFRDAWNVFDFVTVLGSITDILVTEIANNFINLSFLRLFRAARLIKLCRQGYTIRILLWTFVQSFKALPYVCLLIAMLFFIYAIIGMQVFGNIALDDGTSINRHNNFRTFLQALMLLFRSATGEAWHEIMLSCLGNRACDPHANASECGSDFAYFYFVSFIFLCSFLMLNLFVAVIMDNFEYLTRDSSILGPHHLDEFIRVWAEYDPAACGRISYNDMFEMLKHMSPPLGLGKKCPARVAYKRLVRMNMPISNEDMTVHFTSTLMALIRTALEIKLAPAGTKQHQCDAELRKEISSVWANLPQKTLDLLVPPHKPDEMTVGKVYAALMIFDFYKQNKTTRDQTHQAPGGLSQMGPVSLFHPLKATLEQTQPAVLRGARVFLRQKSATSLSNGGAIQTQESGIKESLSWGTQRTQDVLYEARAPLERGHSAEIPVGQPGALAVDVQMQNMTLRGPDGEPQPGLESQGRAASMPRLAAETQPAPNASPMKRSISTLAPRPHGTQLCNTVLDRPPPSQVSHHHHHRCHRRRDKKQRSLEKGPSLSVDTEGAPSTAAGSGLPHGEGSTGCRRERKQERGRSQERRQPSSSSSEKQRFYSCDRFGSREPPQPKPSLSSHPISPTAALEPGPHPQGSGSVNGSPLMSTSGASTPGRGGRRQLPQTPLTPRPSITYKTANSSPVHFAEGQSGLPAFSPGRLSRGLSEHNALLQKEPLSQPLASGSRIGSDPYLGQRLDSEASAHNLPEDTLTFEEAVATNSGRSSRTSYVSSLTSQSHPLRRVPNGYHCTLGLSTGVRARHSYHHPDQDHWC
rat α1B+β1b calcium channel (N-type calcium channel α1B subunit coexpressed with β1b subunit) (rat), sequence (P54283 whole entry, chain 2 of 2, further chain): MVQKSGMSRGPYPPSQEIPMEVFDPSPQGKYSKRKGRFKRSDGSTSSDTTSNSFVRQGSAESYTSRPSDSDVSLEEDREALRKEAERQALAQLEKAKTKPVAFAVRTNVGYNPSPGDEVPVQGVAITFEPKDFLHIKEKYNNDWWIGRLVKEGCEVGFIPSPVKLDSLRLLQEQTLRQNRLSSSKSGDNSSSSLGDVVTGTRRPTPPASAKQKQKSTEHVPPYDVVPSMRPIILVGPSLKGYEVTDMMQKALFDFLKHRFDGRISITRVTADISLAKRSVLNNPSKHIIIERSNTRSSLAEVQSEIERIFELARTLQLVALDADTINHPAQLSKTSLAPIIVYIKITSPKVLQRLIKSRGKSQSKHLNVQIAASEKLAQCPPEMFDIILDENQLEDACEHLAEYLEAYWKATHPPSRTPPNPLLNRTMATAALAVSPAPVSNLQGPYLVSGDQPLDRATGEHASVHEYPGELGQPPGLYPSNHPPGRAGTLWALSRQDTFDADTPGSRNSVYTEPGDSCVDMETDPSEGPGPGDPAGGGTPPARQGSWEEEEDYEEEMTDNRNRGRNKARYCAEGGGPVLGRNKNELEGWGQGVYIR

Consider “rat brain α2δ-2 calcium channel subunit (from UniProt Q8CFG6 19-1157)”, for which the average current density (Ipeak/cell capacitance), whole-cell patch clamp, fold increase on coexpression was found to be 4 fold.
